Measurements reported in the supplement of paper PMC9170038.

System: MS2 coat protein
Experiment: apparent KD of MS2 coat protein; designed switch direction (-1 OFF switch, 1 ON switch): 1; higher = weaker reporter binding
How it was run: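 For each design, the apparent KD is the median over clusters of curves fitted to normalised cluster fluorescence. Clusters held RNA switches with common flanks, transcribed on Illumina chips by stalled E. coli RNA polymerase. These were titrated with SNAP-549-labelled MS2 coat protein, doubling from 0.7 or 1.5 nM to 3 µM, without input, with 200 uM small-molecule ligand, or with an oligonucleotide input.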

[1] = input ligand: microRNA oligo, concentration not stated
[2] = Eterna round: R95, input ligand: FMN 200 uM
[3] = Eterna round: R95, input ligand: microRNA oligo, concentration not stated
[4] = Eterna round: R95, input ligand: none

Sequence | apparent KD of MS2 coat protein [1] | apparent KD of MS2 coat protein (input ligand: FMN 200 uM) | apparent KD of MS2 coat protein (input ligand: none) | apparent KD of MS2 coat protein [2] | apparent KD of MS2 coat protein [3] | apparent KD of MS2 coat protein [4]
AAGCUCGUGUGAGGAUAUGCCGCCGUUUCGGCUGCAGAAGGUGCUACGUUACAUGAGGAUCACCCAUGUCUCUGUUGUUUCGUG [salish99_SSNG1_r04_953] (Eterna round: R96, puzzle: Same State NG 1) | 18.5 nM | – | – | – | – | –
AAGGGAUGAGCGUAGGAUAUAGGAGAAGUGACAUGAGGAUCACCCAUGUAAAAGGAGGGAUGAGACUAGAAGGACGAGGUAGGAG [JR_SS2_Sub059] (Eterna round: R96, puzzle: Same State 2) | 55.4 nM | 82.7 nM | 78.3 nM | – | – | –
AAGGGAUGAGCGUAGGAUAUAGGAGAAGUGACAUGAGGAUCACCCAUGUAAAAGGAGGGAUGAGACUAGAAGGACGAGGUAGGAG [JR_SS2_Sub059] (puzzle: Same State 2) | – | – | – | 132 nM | 84.6 nM | 91.5 nM
AAGUGAUGGGUUAGUAACUGCUAGUAAGGACAUGAGGAUCACCCAUGUGAGUAACGAGCUUUUGCUCGUCUUAUAAA [JR_SHM208A_Sub020] (puzzle: Sensor for hsa-mir-208a) | – | – | – | 89.7 nM | 48.9 nM | 110 nM
AAUAUACAUGAGGAUCACCCAUGUUAGUAAAUGACAGGAUAUGGAAUAAAUAAAUAAUAACCAGAAGGGUCUAAUA [JMF's solution 2] (puzzle: Same State 1) | – | – | – | 16 nM | 24.9 nM | 28.5 nM
AAUUAUUAACAUGAGGAUCACCCAUGUAUUAUUAUUAACAAGCUUUGCUCUACAUGGGUGCUCGUCUUAUUUAUUAA [AthenaIerokomos] (puzzle: Sensor for hsa-mir-208a version 2) | – | – | – | 13.7 nM | 68.6 nM | 32.5 nM
AAUUCAAACAGAGGAUAUUGUUUAUCUCUAUUGCAAGAAGGCUGAUCUUACUACUUACUUAUGAAACAUGAGGAUCACCCAUGU [JR_SSNG1_Sub019] (Eterna round: R96, puzzle: Same State NG 1) | 29.3 nM | – | – | – | – | –
AAUUUAAUACAUGAGGAUCACCCAUGUAAAUUAAUUAAGAUCUAGGAUAUCAGCUCGAAUAGAGCUGAGAAGGAGAUCACAUGU [SSNG3/19-B1] (Eterna round: R96, puzzle: Same State NG 3) | 13.8 nM | – | – | – | – | –
ACAAGCUUUUCUGCAUUGAAAGGUUGAUAACAUGAGGAUCACCCAUGUUUAUAUGAAAAUAAUGCUCCUCGUCUUAU [JR_SHM208A_Sub094] (puzzle: Sensor for hsa-mir-208a) | – | – | – | 55.4 nM | 11.4 nM | 46.9 nM
ACAAGCUUUUCUGUAUUGAAAGGUGGGAUACAUGAGGAUCACCCAUGUUUUUUUGUUUAUUUUUUUCCUCGUCUUAU [JR_SHM208A_Sub088] (Eterna round: R96, puzzle: Sensor for hsa-mir-208a) | 36.5 nM | 46 nM | 37.2 nM | – | – | –
ACAAGCUUUUCUGUAUUGAAAGGUGGGAUACAUGAGGAUCACCCAUGUUUUUUUGUUUAUUUUUUUCCUCGUCUUAU [JR_SHM208A_Sub088] (puzzle: Sensor for hsa-mir-208a) | – | – | – | 34.3 nM | 37.8 nM | 34.3 nM
ACAAGCUUUUUUGUAGUGAAAGGUGGGAUACAUGAGGAUCACCCAUGUAUUGUUGUUAAUAUUGGACCUCGUCUUAU [JR_SHM208A_Sub084] (puzzle: Sensor for hsa-mir-208a) | – | – | – | 22.1 nM | 14.2 nM | 22.5 nM
ACAGCCGGCACUGAGGAUAUUCAUAUUAAAACAUGAGGAUCACCCAUGUAGGCCAGAAGGCCUUGGGAGAAGGCAGGUCGGCUGA [Mat - Same State 2 - Mod of UCT - D64] (puzzle: Same State 2) | – | – | – | 18.8 nM | 229 nM | 391 nM
ACAUAGGUUUCAGGAUAUGGGUAAAUUCCCAACAUGAGGAUCACCCAUGUCCGUUGGGAUAACAUCCAGAAGGGAAGCCACAUA [MOD2 Eternabot Solution 1 (Score 87.5)] (Eterna round: R96, puzzle: Same State NG 2) | 88.1 nM | 215 nM | 390 nM | – | – | –
ACAUGAAAUUGAGGAUAUUUUGUACCUACAUGUGACAUGAGGAUCACCCAUGUGGUAAGUAUAAGAAAGAAGGCAAAGAUAUGU [Equivalence 7 - Jieux - Same State NG 2] (Eterna round: R96, puzzle: Same State NG 2) | 30.8 nM | 25.6 nM | 64.9 nM | – | – | –
ACAUGAGACGGAGGAUAUGUUGUACCUACAUGUGACAUGAGGAUCACCCAUGUGGUAAGUAUGAUACAGAAGGCCGAGAUAUGU [Equivalance 58 - Jieux - Same State NG 2] (Eterna round: R96, puzzle: Same State NG 2) | 13.2 nM | 13.6 nM | 18.9 nM | – | – | –
ACAUGAGAGAUAGGAUAUCUUGUACCUACAUGUGACAUGAGGAUCACCCAUGUGGUAAGUAUGAGAGAGAAGGAUCAGAUAUGU [Equivalence 36 - Jieux - Same State NG 2] (Eterna round: R96, puzzle: Same State NG 2) | 14.3 nM | 14.1 nM | 21.2 nM | – | – | –
ACAUGAGAGUGAGGAUAUAUAGUACCUACAUGUGACAUGAGGAUCACCCAUGUGGUAAGUAUGACAUAGAAGGCACAGAUAUGU [Equivalance 100 - Jieux - Same State NG 2] (Eterna round: R96, puzzle: Same State NG 2) | 71.4 nM | 37.9 nM | 84.2 nM | – | – | –
ACAUGAGAGUGAGGAUAUGGUGUACCUACAUGUGACAUGAGGAUCACCCAUGUGGUAAGUAUGACUCAGAAGGCACAGAUAUGU [Equivalance 77 - Jieux - Same State NG 2] (Eterna round: R96, puzzle: Same State NG 2) | 59.4 nM | 16.2 nM | 103 nM | – | – | –
ACAUGAGAGUUAGGAUAUGUUGUACCUACAUGUGACAUGAGGAUCACCCAUGUGGUAAGUAUGAGGCAGAAGGGACAGAUAUGU [Equivalence 46 - Jieux - Same State NG 2] (Eterna round: R96, puzzle: Same State NG 2) | 51.7 nM | 75.7 nM | 137 nM | – | – | –
ACAUGAGGAUCACCCAUGUAACCAAGAGAGAGAGCACGGACGCAGGAUAUGCGGCGACGAGCGGAGCAGAAGGGCGCCUCAUAU [Alacarus NG 3 Attempt 1] (Eterna round: R96, puzzle: Same State NG 3) | 52 nM | 79.3 nM | 109 nM | – | – | –
ACAUGAGGAUCACCCAUGUAUGCUCAGGAAACUGUGCAACGUGAGGAUAUGGAUCCUAAUUGGAUCCAGAAGGCAUGAAUUAUU [Fiskers NG3ss - 23] (Eterna round: R96, puzzle: Same State NG 3) | 170 nM | 41.5 nM | 418 nM | – | – | –
ACCCACGACGGAGGAUAUGGGCACUCGGCGGAAUAAACCGCCAUAACAUGAGGAUCACCCAUGUCCCAGAAGGCCGUCGCAAUC [Esdirece] (Eterna round: R96, puzzle: Same State NG 2) | 404 nM | 109 nM | 712 nM | – | – | –
ACCCGCGACGGAGGAUAUGGGCACUCGGCGAAAUAAACCGCCAUAACAUGAGGAUCACCCAUGUCCCAGAAGGCCGCCGCAAAC [Leatve] (Eterna round: R96, puzzle: Same State NG 2) | 255 nM | 92.3 nM | 505 nM | – | – | –
ACCCGCGACGGAGGAUAUGGGCACUCGGCGAAAUAAACCGCCAUAACAUGAGGAUCACCCAUGUCCCAGAAGGCCGUCGCAAUC [Anlelaen] (Eterna round: R96, puzzle: Same State NG 2) | 154 nM | 81 nM | 473 nM | – | – | –
ACGCAGCUGGGUGAGGAUAUCGGUGGUACUACAUGAGGAUCACCCAUGUCCGAAGCUCGGACCUCCGAGAAGGCGCCCGGCUGCG [Soinraesar Omei Mod 3] (puzzle: Same State 2) | – | – | – | – | 184 nM | –
ACUAAAACUGCAGGAUAUGUCCGGAACUCCGUUACAGAAGGGCAACGCACUGUUGAGGGCACGACAUGAGGAUCACCCAUGUAG [Eternabot solution 46] (Eterna round: R96, puzzle: Same State NG 1) | 22.5 nM | 20.9 nM | 26.8 nM | – | – | –
AGAAAACAUGAGGAUCACCCAUGUAUAGUGAAUACAGGAUAUCAUCGACGGAAUAGUUGAUGAGAAGGGUGAUCGC [Gebiatan] (puzzle: Same State 1) | – | – | – | 13.2 nM | 14.4 nM | 10.4 nM
AGACACAUGAGGAUCACCCAUGUUACGAGCUUAGCUCGGACACAGGAUAUCCGGUCCUAGAGACCGGAGAAGGGUGGCUGAAAA [Zara MOD2] (Eterna round: R96, puzzle: Same State NG 3) | 212 nM | 728 nM | 587 nM | – | – | –
AGAGGAGGAGCAGGAUAUUCGAAGGAGGACGUGGAAGAAGGGUUCAUGCGAUGACAUGAGGAUCACCCAUGUACCGCGCGUCGA [AK SSNG1-V2-15] (Eterna round: R96, puzzle: Same State NG 1) | 126 nM | 381 nM | 484 nM | – | – | –
